Experimental data: patent US10010626B2, “Molecular constructs with targeting and effector moieties” (Immunwork Inc., priority 2015, dated 2018)

Key:
CD20 = molecular target: T1, CD20 (Homo sapiens, UniProt P11836); assay: Apoptosis by anti-CD20 Fab in a 4-arm PEG linker; format: cell-based; settings: PEG arm of about 1,000-1,200 daltons (about 25-30 ethylene glycol units)
T1 sequence (P11836 1-297): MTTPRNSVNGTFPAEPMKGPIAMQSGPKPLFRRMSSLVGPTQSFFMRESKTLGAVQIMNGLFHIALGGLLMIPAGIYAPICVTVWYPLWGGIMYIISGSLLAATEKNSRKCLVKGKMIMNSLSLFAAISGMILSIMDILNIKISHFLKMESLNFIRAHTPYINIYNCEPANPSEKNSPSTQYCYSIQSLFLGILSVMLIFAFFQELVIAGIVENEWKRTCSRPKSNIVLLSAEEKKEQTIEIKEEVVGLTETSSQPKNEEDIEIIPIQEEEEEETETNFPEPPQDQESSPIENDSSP

human TNF-α = human TNF-α (Homo sapiens, UniProt P01375); assay: ELISA analysis of purified scFv of adalimumab; format: binding; settings: compared with Expi-293F-produced scFv of adalimumab
Description: The expression plasmid was then transformed into Pichia pastoris by electroporation. To screen for high yield clones, ELISA was performed to measure the expression levels of scFv of adalimumab. Out of 480 transformants, five were selected for further protein induction and examination by SDS-PAGE. The clone scFv_1-A2 was selected for subsequent large-scale fermentation.
The high-yield clone scFv_1-A2 was inoculated in 100 mL of buffered glycerol-complex medium (BMGY, containing 1% yeast extract, 2% peptone, 100 mM K3PO4, 1.34 YNB, 0.4 mg/L biotin and 1% glycerol, pH 6.0) and cultured at 30° C., 200 rpm for 24 hours. On the next day, the culture was changed to a fermentation condition maintaining at 30° C., 30% of dissolved oxygen and pH 6.0. After being fermented for 24 hours, nitrogen source (YE, peptone) and methanol (0.5%, v/v) was added to induce protein expression. The culture supernatant was harvested for protein purification.

human TNF-α, sequence (P01375 77-233 limits assumed): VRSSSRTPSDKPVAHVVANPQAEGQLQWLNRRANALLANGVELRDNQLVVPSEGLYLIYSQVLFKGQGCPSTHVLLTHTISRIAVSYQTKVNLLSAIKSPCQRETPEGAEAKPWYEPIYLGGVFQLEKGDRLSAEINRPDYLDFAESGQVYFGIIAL

Substance	causing apoptosis (CD20)	binding to human TNF-α (ELISA) (human TNF-α)
anti-CD20 (rituximab) Fab in a 4-arm PEG linker: anti-CD20 (rituximab) Fab in a 4-arm PEG linker, PEG arm of about 1,000-1,200 daltons	effective in causing apoptosis	
yeast-produced scFv of adalimumab: scFv of adalimumab produced by Pichia pastoris clone scFv_1-A2		bound to human TNF-α equally well as Expi-293F-produced scFv of adalimumab
